Results from patent publication US20140287419A1, “Compositions Having Dicamba Decarboxylase Activity and Methods of Use” (priority 2013, published 2014).

Experiment: 14C assay with IPTG-induced recombinant E. coli cells (14CO2 capture from [14C]-carboxyl-labeled dicamba)
Conditions: for Dicamba Decarboxylase Activity: IPTG-induced recombinant E. coli cells, [14C]-carboxyl-labeled dicamba, 14CO2 capture; for Enzymatic Detection level: dicamba decarboxylation activity of the protein of the given SEQ ID NO

Row | Molecule | Dicamba Decarboxylase Activity | Enzymatic Detection level
1 | 50 (protein, listed as Streptomyces sp.) MARIVTLEEHWTDPAVTAAGMPNLLDHVPGYAAAFDPDTGMPYPRHPELLEDLGAARIADMDRHGITTQVLSLVNTFLPADVAPRLTAAANDAMAAAVEAFPGRFAAFATLPTAVPGAAADELRRCVGELGFVGTMIMGRTDGEFLDQPRFDPILRAASDLSVPVYLHPAPPPVAVSEASYAGGLSPAVSAAFRLAAWGWHQETAVHLLHLVLAGVLDRYPGLQFVLGHWGEFIPFYLDRLDESMPRRMTGLDRTFREYFRDNVFITPSGMFSQAQLRYCADTVGTDRIIHSVDFPMLGNEGAVSFLTDSHLSREDQEKIAHGNADALLGLG | High | High
2 | 48 (protein, listed as Amycolatopsis mediterranei) MASMKLYGLEEHFVTADVIEAWRRRDPGLAEPMMKWAVASDITPALLDVDGGRIAAMDDAGIDTTVLSLTTPGLQNLDAAEAVALQAPTNDLIAAAVRRHPGRFQGFATLATSAPAAAADELRRAVTELGLNGALVNANSRGRALDAPGFWDIYEAAEDLRAPVYLHPGVPVPAVTEAYYRGFGEPVNSMLATGAFGWHYDAGLTILRMIVAGVFDRFPGLQVILGHWGEVVLFYLDRVAAMDKLTALRRPIAEYFRSNIFITPGGISSHKYLRWSLETVGVERIMYASDYPFNTERAGSARRFLDTAPVDEAGRERIAYRNWEELIAGIRR | High | High
3 | 42 (protein, Agrobacterium radiobacter) MAQGKIALEEHFAIPDTLQDSAGFVPGDYWKELSARLLDIHEQRLMQMDAYGIEKMILSLNAPAVQAIPDKAKALEISRRANDFLAEQCARNPDRFLGFAALPLQDPDAATAELQRCVKTLGFVGALVNGFSQEGDGVTPLYYDLPQYRGFWAEVEKLAVPFYLHPRNPLPQDSRIYAGHPWLMGPTWAFAQETAVHALRLVGSGLFDDHPALRIILGHMGEGLPYMMWRIDNRNAWVKVAPNYPAKRRIADYFNENFYITTSGNFRTQSLVDAMLEIGADRILFSTDWPFENIDHASDWFDTATISEADRLKIGRTNAATLFNLES | Low | Low
4 | 45 (protein, Mycobacterium sp) MANDDLAEVIAAHPDRFAGFAALPMRDPQAAAVELQRAVGTHGFCGAMINGLIEGRFLDDPAFAPLLSTAADLGVPLYLHPSFPPPQVAEIYFGGLAPVLGDLLATAGWGWHAETALHVLRLVATGVFDRLPELWVIVGHMGEMIPFALARIDTVLSPVAQLRQPVAQYFQTNVWFTTSGYTTFPPLQCALSTVGIDRLIFSVDYPYTDNTSARALLDTAPISPVDREKLAHGTVEALLRV | No | No
5 | 46 (protein, listed as Rhodococcus opacus) MARIITLEEHYLDPAIAAASAPLARELSPDFAAAYDPASGLSYTPSAQVLQDLGQRRIADMDTHGISMQVLSCLTTQQVPADVAPDLVRAANDTAAAAVRAHPDRFAAFAALPTTAPDAAATELARCIDDLGFVGTMINGRTDGEFLDAPRFDPILATAAARNVPIYLHPAVPPRATSDSNYAGLAPLVTARLQTSAWGWHQETAVHFLHLVLSGVLDRYPNLQFILGHWGEMIPFYLDRLDEALPQAVTNLDRTISDYVRENVYITPSGMFNQAQLQYCVETLGVDRILYSVDYPFIGNDGAVSFLDEANLPDEAKHQIAHQNTEKLLGL | High | High
6 | 3 (protein, listed as Lactobacillus plantarum) MAKLITVEEHFESAAVTAAMRQAVGNAVLPAVSPALRQYMRDNLPSPAIMQDTQHERLAFMAQYGIDMQVLSYGNSSPQNLSPEQAVPLSQLANDELAKAVVAHPDRYAGLAVLPVGDPQAAVAELNRAVTTLGLRGVLLKGNYQNKFFDEPFFLPIFEAAAALDVPVYFHPSFIPQAVTSHYFESNQWSDVVTGILSSAGYGWHMDVGIQVIRMIASGIFDKLPGLKLISGHWGELVPLFLERLDDELTTYTDLQYPFSTYYRHNVYVTPSGILSAPQLQFMLAEMGADHLMYSIDYPYKQPETSGSFLDIADLTDEQRAQIAFGTATTLFKL | Low | Low
7 | 38 (protein, listed as Variovorax paradoxus) MAQGKIGLEEHFAIPQTLQDSAGFVPGVYWKELSSRLLDIHDGRLRQMDEHGMEMMILSLNAPAVQAVADPVKAYELAVRANDFLAEQVAKRPDRFQAFAALPMQDPEKATQELERCMSVLGFRGALVNGFSQVGTPDNVAYYDAPQYAPFWAAAERLDAPFYLHPRNPIASWAQIYEGHPWLLGPTWAFAQETAVHALRLMASGLFDRHPGLKIILGHLGEGLPYNMWRVDHRNAWVKAPKGYPAKRKLCEYFQENFYLTTSGNFRTQTLIDAMLEVGSDRILFSTDWPFENIDHASNWFNDTSISEADRKKIGRTNAMSLFKLA | Low | Low
8 | 36 (protein, listed as Agrobacterium sp.) MAQGKVALEEHFAIPETLQDSAGFVPGDYWTELQHRLLDIQDTRLKLMDAHGIETMILSLNAPAVQAIPDKTKAIEIARRANDALAEECAKRPNRFLAFAALPLQDPDAATQELQRCVNDLGFVGALVNGFSQEGDGQIPLYYDLPQYRPFWGEVEKLDVPFYLHPRNPLPQDSRIYDGHPWLLGPTWAFAQETAVHALRLMASGLFDEHPRLNIILGHMGEGLPYMMWRIDHRNAWVKLPPRYPAKRRFVDYFNENFHITTSGNFRTQTLIDAILEIGADRILFSTDWPFENIDHASDWFHATSIAEADRVKIGRTNARRLFKLDGR | High | High
9 | 39 (protein, listed as Agrobacterium fabrum) MAQGKVALEEHFAIPETLQDSAGFVPGDCWTELQHRLLDIQDTRLKLMDAHGIETMILSLNAPAVQAIPDKTKAIEIARRANDALAEECAKRPDRFLAFAALPLQDPDAATQELRRCVNDLGFVGALVNGFSQEGDGQTPLYYDLPQYRPFWGEVEKLDVPFYLHPRNPLPQDSRIYDGHPWLLGPTWAFAQETAVHALRLMASGLFDEHPRLDIILGHMGEGLPYMMWRIDHRNAWVKLPPRYPAKRRFVDYFNENFHITTSGNFRTQTLIDAILEIGADRILFSTDWPFENIDHASDWFHATSIAEADRVKIGRTNARRLFKLDGR | No | No
10 | 49 (protein, listed as Streptomyces sp.) MAKIIALEEHFSDPAVAKAGAARARALSPGFAASYSPASGLPYSPSPEVLENLAEKRLADMDAGGITMQVLSGLGAQTVPADVAPALVAGSNDKAAAAVRAHPDRFAAFAALPTATPEAAVAELDRSVNELGFVGTLIMGRTEGEFLDAPRFEPILARAAALKVPVFLHPGVPPREITDSNYAAGLPTGIGTRLQTAAWGWHQETAVHFLHLVHSGVLDRYPDLQFILGHWGEMIPFYLDRVDEALPQRATGLDRSFHEYFRENVYLAPSGMWSQAQLRFCLETVPLERIVFAVDYPFIGNEGAVPFLEKAELPQADKRKIAHENAERLLGL | High | High
11 | 47 (protein, listed as Serratia odorifera) MAKIICLEEHTLDKALVMASMPAALAQAPFLSDWGKTITDGNLPDRSRPQIEKNDLINVKGADIGRGRLDDMDEAGITMQVLSVGGFPHLISAAEGVDLNRAANDRLANAVNAHPDRFAAFATLPWAQPDAAEKELERAVKELGFKGALLNGRPSIHFLDHPDYDGLLARFNALGVPLYLHPGLPVRSVQQAYYSGFSDEVTARLSMFGWGWHHEAGIHLLRLILSGAFDKYPNLQVISGHWGEMLPFWLQRLDDSLPQAATGLRRTITQTFREQVYVTPSGMLTLPHFQFIYALLGAERILFSVDYPYQTLDGVKAFIQSLPVPEEAKEAIAFRNAERLFGLTS | High | High
12 | 43 (protein, listed as Rhizobium leguminosarum) MAQGKIALEEHFAIPETLQDSAGFVPGDYWTELSARLLDIQDKRLRLMDTHGIEKMILSLNAPAVQAIPDKAKAVEISRRANDFLAEQCVKNPNRFLGFAALPLQDPDAATQELQRCVTTMGFVGALVNGFSQEGDGTTPLYYDLPQYRPFWAEVEKLDVPFYLHPRNPLPQDSRIYAGHSWLMGPTWAFAQETAVHALRLMGSGLFDEHPALRIIVGHMGEGLPYMMWRIDNRNAWVKVEKSYPAKRPIADYFNENFYITTSGNFRTQSLIDAMLEIGADRILFSADWPFENVDHAANWFDSATISEADRLKIGRTNAVSLFKLDR | High | High
13 | 37 (protein, listed as Burkholderia gladioli) MATFSNVKKIALEEHFAIAETIEDSAGFVPPDDWVELRGRLLDIQERRLAEMDRAGIELMVLSLNAPAVQAIRDPRQAVELARRANDYLAEQVARRPDRFRAFAALPMQAPEQAIREAERCVRELGFVGALVNGFSEAEDGAELYYDLPRYRPFWAALEALEVPFYLHPRNPLAGRAPIYDGHSWLMGPTWAFGQETAVHALRLMGSGLFDAHPRLQIILGHMGEGLPYSMWRVDNRNAWVSAKPNYPAEKPIAEYFRNNFWLTTSGNFRTQTLIDAMLEIGSDRILFSADWPFENMDHAADWFDHASISENDRIKIGRGNAERLLKLGR | Low | Low
14 | 40 (protein, listed as Rhodococcus jostii) MAQGKIALEEHFAIPETLNDSAGFVPGTYWDELQARLLDIQDVRLKLMDEHNIETMILSLNAPAVQAIPERERAIDIARRANDVLAEECAKRPDRFRGFAALPLQDPDAAAEELRRCVTELGFVGALVNGFSQSATVDGGSTPLYYDLPRYRPFWAEVERLDVPFYLHPRNPLNQDARIYEGHPWLLGPTWAFAQETAVHALRLMASGLFDEHPGLRIVLGHMGEGIPAMLWRIDHRNAWVDVPPAYPAKRRMVDYFTENFFVTTSGNFRTQTLIDLLLELGSERVMFSTDWPFENINHAAEWFDAASISEADRLKIGRTNAATLFKLDR | Low | Low
15 | 44 (protein, listed as Mycobacterium avium) MARIITVEEHFQHPEVSARVAELTGPAVEGLAEFGNAFSLDPDSTARLGGNRLAHMDQVGIDVQVVSHGNGSPGTLQHPEAVELCRRVNNDLAAQIAENPDRFRGFATLPLYDPAAAAEELRRCVGDLGFVGALIAGSYDGLFLDDERFDPILTAAEAVDFPIYVHPGLPEAPVSQRYYAGSWPASVHMMFSGPAFGWHAEAGIHIVRLILSGALDRHPTLKLLSGHWGELAAFYLERLDETLGLLPTGLERAPSDYYRQQVWITPSGMYNQNQLNFMTAELGAQRIIYSEDFPYVVRDNVSTFLEQAGLSEADTHAIAHTNAEALLRI | High | High
